In patent US20060024807:

What was measured:
[1] = target: T1, Known PK substrate sequence APRTPGGRR (p42/p44 MAP kinase substrate)
T1 chain: APRTPGGRR

[2] = target: T2, Known PK substrate sequence Ac-SPGRRRRK (cdc2-kinase substrate)
T2 chain: SPGRRRRK

[3] = target: T3, Known PK substrate sequence EAAEAEPAEPSSPAAEAEGA (p42/p44 MAP kinase substrate)
T3 chain: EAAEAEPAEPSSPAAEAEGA

[4] = target: T4, Known PK substrate sequence EAIYAAPFAKKK (abl tyrosine kinase substrate)
T4 chain: EAIYAAPFAKKK

[5] = target: T5, Known PK substrate sequence KKALRRQETVDAL (Ca-/calmodulin-dependent PK substrate)
T5 chain: KKALRRQETVDAL

[6] = target: T6, Known PK substrate sequence KKKKEEIYFFF (csk tyrosine kinase substrate)
T6 chain: KKKKEEIYFFF

[7] = target: T7, Known PK substrate sequence KKKLPATGDYMNMSPVGD (insulin receptor tyrosine kinase substrate)
T7 chain: KKKLPATGDYMNMSPVGD

[8] = target: T8, Known PK substrate sequence KKRFSFKKSFKLSGFSFK (protein kinase C substrate)
T8 chain: KKRFSFKKSFKLSGFSFK

[9] = target: T9, Known PK substrate sequence KKRPQRATSNVFS (myosin light chain kinase substrate)
T9 chain: KKRPQRATSNVFS

[10] = target: T10, Known PK substrate sequence LMECRNSPVAKT (p42/p44 MAP kinase substrate)
T10 chain: LMECRNSPVAKT

[11] = target: T11, Known PK substrate sequence LRRASLG (cAMP-dependent protein kinase substrate)
T11 chain: LRRASLG

[12] = target: T12, Known PK substrate sequence LSSLRASTSKSGGQK (S6 kinase substrate)
T12 chain: LSSLRASTSKSGGQK

[13] = target: T13, Known PK substrate sequence PKTPKKAKKL (p34 cdc-kinase substrate)
T13 chain: PKTPKKAKKL

[14] = target: T14, Known PK substrate sequence PLARTLSVAGLPGK (Ca-/calmodulin-dependent PK substrate)
T14 chain: PLARTLSVAGLPGK

[15] = target: T15, Known PK substrate sequence QKRPSQRSK (protein kinase C substrate)
T15 chain: QKRPSQRSK

[16] = target: T16, Known PK substrate sequence RKISASEFDRPLR (cGMP-dependent protein kinase substrate)
T16 chain: RKISASEFDRPLR

[17] = target: T17, Known PK substrate sequence RRKDLHDDEEDEAMSITA (casein kinase I substrate)
T17 chain: RRKDLHDDEEDEAMSITA

[18] = target: T18, Known PK substrate sequence RRRDDDSDDD (casein kinase II substrate)
T18 chain: RRRDDDSDDD

[19] = target: T19, Known PK substrate sequence SGQLIDSMANSFVGTRS (raf-1 kinase substrate)
T19 chain: SGQLIDSMANSFVGTRS

[20] = target: T20, Known PK substrate sequence YIYGSFK (c-src tyrosine kinase substrate)
T20 chain: YIYGSFK

B1: MLSK-1 (Murine Lymph node Stromal cell Kinase 1) (protein)
chain: MESVALLQRPSQAPSASALASESARPLADGLIKSPKPLMKKQAVKRHHHKHNLRHRYEFLETLGKGTYGKVKKARESSGRLVAIKSIRKDKIKDEQDLLHIRREIEIMSSLNHPHIIAIHEVFENSSKIVIVMEYASRGDLYDYISERPRLSERDARHFFRQIVSALHYCHQNGIVHRDLKLENILLDANGNIKIADFGLSNLYHKGKFLQTFCGSPLYASPEIVNGKPYVGPEVDSWSLGVLLYILVHGTMPFDGQDHKTLVKQISNGAYREPPKPSDACGLIRWLLMVNPTRRATLEDVASHWWVNWGYTTGVGEQEALREGGHPSGDFGRASMADWLRRSSRPLLENGAKVCSFFKQHVPGGGSTVPGLERQHSLKKSRKENDMAQNLQGDPAEDTSSRPGKSSLKLPKGILKKKSSTSSGEVQEDPQELRPVPDTPGQPVPAVSLLPRKGILKKSRQRESGYYSSPEPSESGELLDASDVFVSGDPVEQKSPQASGLLLHRKGILKLNGKFSRTALEGTTPSTFGSLDQLASSHPAARPSRPSGAVSEDSILSSESFDQLDLPERLPETPLRGCVSVDNLRGLEQPPSEGLKRWWQESLGDSCFSLTDCQEVTAAYRQALGICSKLS
B1 was tested, and the Phosphorylation by MLSK-1 (% of max.) [1] was 88.6 % of max, the Phosphorylation by MLSK-1 (% of max.) [2] was 94.8 % of max and the Phosphorylation by MLSK-1 (% of max.) [3] was 0 % of max. For the same protein, the Phosphorylation by MLSK-1 (% of max.) [4] was 69.3 % of max, the Phosphorylation by MLSK-1 (% of max.) [5] was 20.9 % of max and the Phosphorylation by MLSK-1 (% of max.) [6] was 82.1 % of max. The Phosphorylation by MLSK-1 (% of max.) [7] was 33.7 % of max, the Phosphorylation by MLSK-1 (% of max.) [8] was 100 % of max and the Phosphorylation by MLSK-1 (% of max.) [9] was 72 % of max. The Phosphorylation by MLSK-1 (% of max.) [10] was 3.8 % of max, the Phosphorylation by MLSK-1 (% of max.) [11] was 65.9 % of max and the Phosphorylation by MLSK-1 (% of max.) [12] was 66.6 % of max. For the same protein, the Phosphorylation by MLSK-1 (% of max.) [13] was 82 % of max, the Phosphorylation by MLSK-1 (% of max.) [14] was 10.3 % of max and the Phosphorylation by MLSK-1 (% of max.) [15] was 75 % of max. The Phosphorylation by MLSK-1 (% of max.) [16] was 62.2 % of max, the Phosphorylation by MLSK-1 (% of max.) [17] was 14.1 % of max and the Phosphorylation by MLSK-1 (% of max.) [18] was 17.6 % of max. The Phosphorylation by MLSK-1 (% of max.) [19] was 43.1 % of max and the Phosphorylation by MLSK-1 (% of max.) [20] was 66.6 % of max.
